Results as given in patent publication US8552157B2, “c-Kit antibodies and uses thereof” (ImClone LLC, priority 2011, dated 2013).

How the values were obtained:
[1] = system: MALM-3M human melanoma cell line xenograft; experiment: Xenograft tumor growth inhibition, MALM-3M; assay type: in vivo, athymic nude mice
Method: Briefly described, c-Kit-dependent human cancer cell lines are expanded in culture and then are injected subcutaneously into the rear flank of athymic nude mice (Charles River, Wilmington, Mass.) with 2-10 million cells per mouse. Anti-c-Kit mAbs are diluted in PBS, pH 7.2, and administered by intravenous injection at 4 or 40 mg/kg. […] Furthermore, treatment groups may include appropriate chemotherapy drugs or approved RTK inhibitors alone or in combination with the antibodies of the present invention. Antibodies and saline control are administered three times per week for four weeks Inhibition of tumor cell growth is determined by three dimensional caliper measurement of tumor volume twice weekly during the course of treatment. Tumor volume may be calculated as follows: Tumor volume(mm^3)=(length of the tumor)(width^2 of the tumor)(π/6), where the length of the tumor is the largest dimension of the tumor parallel to the skin surface and the width is the largest measurement perpendicular to the length, parallel to the skin surface. Body weight may also be measured frequently during the course of treatment as a general measurement of toxicity. T/C %, and P values are calculated by RM ANOVA where, T/C %=[(Treatment Volume/Initial Volume)/(Control Volume/Initial Volume)]*100 and the P value is calculated in relation to saline.

[2] = target: T1, c-Kit in Mo7e cells (Homo sapiens, UniProt P10721); experiment: In vitro c-Kit degradation assay (Example 7, western blot), Mo7e; assay type: cell-based; conditions: SCF 100 ng/ml, 12, 24, and 48 hours at 37° C., data not shown
T1 construct: endogenous in cells; host or cells: Mo7e (human megakaryocytic leukemia)
Method: An in vitro cell based assay may be used to measure the ability of c-Kit mAbs to induce degradation of c-Kit as measured by the amount of total c-Kit found in cell lysates after treating tumor cells with a c-Kit mAb at 37° C. Briefly, human cell lines expressing c-Kit (e.g., Mo7e and GIST882) are plated in a 6-well dish at a density of 3×10^6 cells/ml in 3 ml of serum-free media. […] One well of cells is left untreated as a control. Immediately after the treatment period, the cells are washed in cold PBS, lysed in 100 μl lysis buffer (50 mM Hepes pH 7.5, 150 mM NaCl, 10 mM NaPPi, 50 mM NaF, 1 mM Na3VO4, 1% Triton X-100, protease inhibitor cocktail). After a ten minute incubation on ice, the cells are centrifuged at 12,000 g for 15 minutes at 4° C. The supernatant is collected and subjected to western blot analysis under reducing conditions. […] As expected from previous reports in the scientific literature,
degradation of c-Kit was not observed after treatment of the tumor cells with SCF (100 ng/ml) for 12, 24, and 48 hours at 37° C. (data not shown).

[3] = target: T2, c-Kit in GIST882 cells (Homo sapiens, UniProt P10721, K642E); experiment: In vitro c-Kit degradation assay (Example 7, western blot), GIST882; assay type: cell-based; conditions: SCF 100 ng/ml, 12, 24, and 48 hours at 37° C., data not shown
T2 construct: endogenous in cells; host or cells: GIST882 (human gastrointestinal stromal tumor)

[4] = target: T1, c-Kit in Mo7e cells; experiment: In vitro c-Kit degradation assay (Example 7a, western blot), Mo7e; assay type: cell-based
Method: Human cell lines expressing c-Kit (e.g., GIST882, Mo7e, and Malm-3M) are plated in a 6-well dish at a density of 3×10^6 cells/ml in 3 ml of serum-free media for all but one Mo7e assay that uses 10% serum. […] One well of cells is left untreated as a control. Immediately after the treatment period, the cells are washed in cold PBS, lysed in 100 μl lysis buffer (50 mM Hepes pH 7.5, 150 mM NaCl, 10 mM NaPPi, 50 mM NaF, 1 mM Na3VO4, 1% Triton X-100, protease inhibitor cocktail). After a ten minute incubation on ice, the cells are centrifuged at 12,000 g for 15 minutes at 4° C. The supernatant is collected and subjected to western blot analysis under reducing conditions. […] SCF induced degradation is not apparent when using 10% serum. (Replicates of GIST882=1, Mo7e=3, and Malm-3M=1).

T1 sequence (P10721 26-976): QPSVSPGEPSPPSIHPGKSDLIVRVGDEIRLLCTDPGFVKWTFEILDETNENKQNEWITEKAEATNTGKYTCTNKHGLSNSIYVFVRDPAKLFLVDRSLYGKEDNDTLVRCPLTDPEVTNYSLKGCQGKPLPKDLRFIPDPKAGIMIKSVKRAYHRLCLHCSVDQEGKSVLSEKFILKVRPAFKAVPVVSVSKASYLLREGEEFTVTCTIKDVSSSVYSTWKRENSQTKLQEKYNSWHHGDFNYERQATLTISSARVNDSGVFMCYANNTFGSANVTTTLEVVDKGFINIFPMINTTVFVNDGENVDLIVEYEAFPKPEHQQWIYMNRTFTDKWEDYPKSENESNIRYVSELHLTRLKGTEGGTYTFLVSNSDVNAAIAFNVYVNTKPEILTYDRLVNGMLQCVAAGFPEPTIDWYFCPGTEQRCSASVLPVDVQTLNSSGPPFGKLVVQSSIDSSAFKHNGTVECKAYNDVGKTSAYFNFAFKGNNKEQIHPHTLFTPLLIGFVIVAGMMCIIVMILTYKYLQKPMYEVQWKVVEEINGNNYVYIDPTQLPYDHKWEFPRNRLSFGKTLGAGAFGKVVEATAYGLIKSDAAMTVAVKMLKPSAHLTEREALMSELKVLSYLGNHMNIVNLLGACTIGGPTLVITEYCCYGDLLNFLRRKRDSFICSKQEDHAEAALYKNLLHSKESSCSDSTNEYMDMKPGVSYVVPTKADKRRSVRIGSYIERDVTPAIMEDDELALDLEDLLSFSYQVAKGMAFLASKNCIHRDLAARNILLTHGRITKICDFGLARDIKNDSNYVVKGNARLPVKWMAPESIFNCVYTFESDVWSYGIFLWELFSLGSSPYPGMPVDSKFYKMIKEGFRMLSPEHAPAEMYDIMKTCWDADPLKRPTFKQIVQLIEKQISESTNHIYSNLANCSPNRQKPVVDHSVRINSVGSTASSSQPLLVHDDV
T2 sequence (P10721 26-976 K642E): as the sequence (P10721 26-976) above, with K617E counted along it

Compound: CN(C)/N=N/c1[nH]cnc1C(N)=O [DTIC, dacarbazine, reference compound]
- T/C % ([1]; Table 13 upper part, DTIC 80 mg/kg, P value 0.0021): 68%

Compound: Cc1ccc(NC(=O)c2ccc(CN3CCN(C)CC3)cc2)cc1Nc1nccc(-c2cccnc2)n1 [Imatinib, imatinib, reference compound]
- T/C % ([1]; Table 13 lower part, Imatinib 100 mg/kg, P value 0.0001): 61%

Compound: CCN(CC)CCNC(=O)c1c(C)[nH]c(/C=C2\C(=O)Nc3ccc(F)cc32)c1C [Sunitinib, sunitinib, reference compound]
- T/C % ([1]; Table 13 lower part, Sunitinib 40 mg/kg, P value 0.0004): 68%

Compound: SCF: c-Kit ligand stem cell factor (SCF) [reference compound]
- degradation of c-Kit, in words [2]: not observed
- degradation of c-Kit, in words [3]: not observed
- degradation of c-Kit, in words ([4]; SCF 1 ug/ml and 100 ng/ml, 24 hours at 37° C., 0% serum): Degradation of c-Kit is observed
- degradation of c-Kit, in words ([4]; SCF, 10% serum): not apparent
